Biological target: T1, Apaf-1 (human (endogenous in HeLa)), O14727
T1 chain: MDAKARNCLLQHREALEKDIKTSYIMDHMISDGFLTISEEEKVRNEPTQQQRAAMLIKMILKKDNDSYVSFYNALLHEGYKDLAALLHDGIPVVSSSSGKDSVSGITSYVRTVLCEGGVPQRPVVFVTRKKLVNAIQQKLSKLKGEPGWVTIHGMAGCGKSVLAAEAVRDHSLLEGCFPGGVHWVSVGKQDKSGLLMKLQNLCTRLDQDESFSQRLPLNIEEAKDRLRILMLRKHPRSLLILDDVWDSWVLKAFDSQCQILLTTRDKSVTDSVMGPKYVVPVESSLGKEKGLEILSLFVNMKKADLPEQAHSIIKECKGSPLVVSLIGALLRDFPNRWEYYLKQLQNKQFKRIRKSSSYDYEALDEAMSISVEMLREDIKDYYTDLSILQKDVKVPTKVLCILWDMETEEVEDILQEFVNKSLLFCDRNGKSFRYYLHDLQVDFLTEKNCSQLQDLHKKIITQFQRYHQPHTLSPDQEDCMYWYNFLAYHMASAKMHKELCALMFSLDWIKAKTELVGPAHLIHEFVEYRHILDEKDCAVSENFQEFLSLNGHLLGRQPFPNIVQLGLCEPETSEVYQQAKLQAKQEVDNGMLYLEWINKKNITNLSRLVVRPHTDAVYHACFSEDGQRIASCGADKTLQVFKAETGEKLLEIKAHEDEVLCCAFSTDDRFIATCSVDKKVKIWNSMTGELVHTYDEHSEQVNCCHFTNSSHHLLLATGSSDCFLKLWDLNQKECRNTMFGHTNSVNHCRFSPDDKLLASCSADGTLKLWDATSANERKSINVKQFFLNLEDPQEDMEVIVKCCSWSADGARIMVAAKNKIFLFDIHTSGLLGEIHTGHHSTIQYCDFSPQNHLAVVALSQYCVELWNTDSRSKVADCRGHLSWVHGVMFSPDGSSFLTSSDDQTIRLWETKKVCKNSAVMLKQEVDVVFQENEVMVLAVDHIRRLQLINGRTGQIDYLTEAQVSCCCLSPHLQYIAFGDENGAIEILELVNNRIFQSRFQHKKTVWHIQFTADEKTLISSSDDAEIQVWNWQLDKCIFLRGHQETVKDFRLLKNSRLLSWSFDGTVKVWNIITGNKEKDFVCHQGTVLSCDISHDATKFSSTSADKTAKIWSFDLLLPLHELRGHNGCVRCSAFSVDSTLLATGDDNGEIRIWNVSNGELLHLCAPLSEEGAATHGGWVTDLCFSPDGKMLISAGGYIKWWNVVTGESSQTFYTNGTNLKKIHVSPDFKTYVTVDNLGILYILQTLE
Experiment: SEC
Settings: remark: other sources report otherwise

- percent recruited to the high Mr complex: 50%
B1: caspase-9, P55211 1-416 (natural protein)
chain: MDEADRRLLRRCRLRLVEELQVDQLWDALLSRELFRPHMIEDIQRAGSGSRRDQARQLIIDLETRGSQALPLFISCLEDTGQDMLASFLRTNRQAAKLSKPTLENLTPVVLRPEIRKPEVLRPETPRPVDIGSGGFGDVGALESLRGNADLAYILSMEPCGHCLIINNVNFCRESGLRTRTGSNIDCEKLRRRFSSLHFMVEVKGDLTAKKMVLALLELAQQDHGALDCCVVVILSHGCQASHLQFPGAVYGTDGCPVSVEKIVNIFNGTSCPSLGGKPKLFFIQACGGEQKDHGFEVASTSPEDESPGSNPEPDATPFQEGLRTFDQLDAISSLPTPSDIFVSYSTFPGFVSWRDPKSGSWYVETLDDIFEQWAHSEDLQSLLLRVANAVSVKGIYKQMPGCFNFLRKKLFFKTS
